Measurements published in publication PMC2935145.

Molecular target: Hr domain from the Acidothermus cellulolyticus P_(1B-5)-ATPase (P_(1B-5)-Hr) (Acidothermus cellulolyticus 11B)
Assay: SEC

stoichiometry N: 2
Substance: Hr domain from the Acidothermus cellulolyticus P_(1B-5)-ATPase (P_(1B-5)-Hr) (domain or fragment)
